From patent publication US20060040855A1

Columns and labels:
rat LH receptor (rat) [1] = target: rat LH receptor (rat) (UniProt P16235)
rat LH receptor (rat) [2] = target: rat LH receptor (rat) (UniProt P16235); remark: listed apart in the source
[3] = target: human FSH receptor (human) (UniProt P23945)
rat LH receptor (rat) [4] = target: rat LH receptor (rat) (UniProt P16235); remark: listed apart in the source

Substance	Efficacy, cyclic AMP accumulation (rat LH receptor (rat) [1]) [%]	cyclic AMP accumulation (rat LH receptor (rat) [2])	efficacy in cyclic AMP assays [3]	efficacy in cyclic AMP assays (rat LH receptor (rat) [4])
dghCG (hCG lacking the α-subunit loop 2 oligosaccharide) (from UniProt P01215) (ligand)	42	40 % of hCG		
dgα37-β33 (dg-αY37C/hCGβI33C) (from UniProt P01215) (ligand)	24			
dgα37-β33CFC (dg-αY37C/CFC101-114βI33C) (from UniProt P01215) (ligand)			< 4 % of hFSH	< 10 % of hCG
dgα37-β33CF (dg-αY37C/CF101-109βI33C) (from UniProt P01215) (ligand)			< 4 % of hFSH	< 10 % of hCG
